{
  "source": "paper doi:10.1101/2024.05.08.592267",
  "about": "“Origins and diversity of pan-isotype human bone marrow plasma cells” (bioRxiv, 2024)",
  "binders": {"B1": {"name": "13T5 (monoclonal Ara h 2 specific antibody, Epitope 2) (antibody, V domains shown)", "VH": "QVQLQESGPGLVKPSETLSLTCTVSGGSMSSYYWGWIRQPAGRGLEWIGRIFTTGSTIYNASLNSRVSMSVDTSKNQFSLKLTSVTAADTALYFCVRDRRGRSHDSNWYWYFDLWGRGTLVTVSS", "VL": "DIVMTQSPSSLSASVGDRVIITCRTSQTLSRNLNWYQQKPGEAPKLLIYGASTLQSGVPSRFTGSGSGTDFTLIISSLQPEDFATYYCQQSDNTPRTFGQGTKVEIK"}},
  "biological_target": "T1, biotinylated natural Ara h 2 (Arachis hypogaea (peanut), natural …, UniProt Q6PSU2, biotin (position not given))",
  "T1 construct": "Ara h 2, peanut allergen, 'natural' (not recombinant) protein; Natural Ara h 2 from peanut may be a mixture of isoforms; also called Biotin Natural Ara h 2; source: bought: InBio (biotinylated natural Ara h 2)",
  "T1 sequence (Q6PSU2 whole entry, looked up, canonical isoform)": "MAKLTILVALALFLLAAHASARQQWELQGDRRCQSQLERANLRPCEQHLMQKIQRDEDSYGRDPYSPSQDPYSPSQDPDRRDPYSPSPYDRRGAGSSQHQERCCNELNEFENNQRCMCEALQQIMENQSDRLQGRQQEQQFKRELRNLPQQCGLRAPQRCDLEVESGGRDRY",
  "test": "BLI; in-tandem epitope binning; biotinylated natural Ara h 2 loaded on streptavidin sensors; primary mAbs 10 ug/mL, secondary mAbs 5 ug/mL in kinetics buffer (Dulbecco's PBS, 1% BSA, 0.02% Tween-20); Octet R2",
  "conditions": "both partners purified",
  "data": [
    {"binder": "B1", "values": [
      {"measurement": "binding result", "result": "binds"}
    ]}
  ]
}
